Measured values: patent US11529426B2, “Methods and compositions for targeting tissue lesions” (priority 2017, dated 2022)

B1: MabCII: monoclonal antibody to type II collagen from E4-D4 (E4) hybridoma clone; mouse IgG2a heavy chain, kappa light chain; VH/VL SEQ ID NO: 6/14 (antibody, listed as Mus musculus, V domains shown)
VH: EVQLVESGGGLVKPGGSLKVSCEASGFTFSDYGMHWVRQAPEKGLEWVAYISSVSSTIYYADTVEGRFTISRDNVRNTLFLQMTSLRSEDTAMYYCAREGWLPLFAFWGQGTLVTVSA
VL: DIVLTQSHKFMSTSVGDRVSITCKASQDVSITVAWYQQKPGQSPKLLIYSASYRNPGVPDRFTGSGSGTDFNFTISTVQAEDLAVYYCQQYYIIPWTFGGGTKLEFKR

Key:
[1] = test system: collagen-induced arthritis; conditions: mice, reference [20]; cited from earlier work
[2] = test system: mechanically loaded mouse knee; assay: Mechanically loaded mouse knee (PTOA), E4 nanosomes: cartilage damage by MabCII680 fluorescence; type: in vivo, C57BL/6 mice; conditions: intravenous, 100 uM TPCA-1, 3 injections, two-week loading; vs empty nanosomes (Control)
From the text: (§1) Targeted nanosomes were generated from lipids and conjugated to purified E4-D4 (E4) monoclonal antibody to type II collagen that was developed from a hybridoma isolated from mice immunized with type II collagen. Briefly, the lipid film which contained dioleoyl-sn-glycero-3-phosphocholine (DOPC), cholesterol, 1,2-distearoyl-sn-glycero-3-phosphoethanolamine-N-[maleimide (polyethylene glycol) 2000] (DSPE-PEG-maleimide) and TPCA-1 was rehydrated with phosphate buffered saline (PBS) and sonicated. The rehydrated lipids were repeatedly extruded through a 200 nm porous membrane to generate 200 nm 1-3 walled nanosomes. The E4 MabCII was thiolated using Traut's reagent, then mixed with the nanosomes for conjugation. […] The E4 MabCII was also conjugated to the near infrared dye XenoLight CF 680 (PerkinElmer) used for the final quantitative imaging of arthritic damage. […]
(§2) At the completion of the two-week loading period, mice were injected retro-orbitally with 100 μL composite mixture of 50 μL of 1 mg/ml E4 monoclonal antibody to type II collagen MabCII680 labeled with Xenolight CF 680 fluorescent dye and 50 μL of MMPSense-750 (Perkin-Elmer, Waltham, Mass.), a substrate that fluoresces when cleaved by MMPs. After 24 hours, the mice were anesthetized and the knee joints were optically scanned for each type of fluorescence using a Lumina XR Imaging System (Perkin Elmer, Waltham, Mass.).

MMPs = assay: Mechanically loaded mouse knee (PTOA), E4 nanosomes: MMP activity by MMPSense-750 fluorescence; type: in vivo, C57BL/6 mice; conditions: intravenous, 100 uM TPCA-1, 3 injections, two-week loading; vs control nanosomes
From the text: as §1, §2

[3] = test system: mechanically loaded mouse knee; assay: Mechanically loaded mouse knee, D1 2G nanosomes: cartilage damage by MabCII680 fluorescence; type: in vivo, C57BL/6 mice; conditions: intraarticular 50 μL, 500 μM TPCA-1, 2 injections, two-week loading; vs PBS
From the text: Targeted nanosomes were generated from lipids and conjugated to purified D1 2G monoclonal antibody from a hybridoma isolated from mice immunized with type II collagen (MabCII). Briefly, the lipid film which contained 5.2 μmol dioleoyl-sn-glycero-3-phosphocholine (DOPC), 4.5 μmol cholesterol, 0.3 μmol 1,2-distearoyl-sn-glycero-3-phosphoethanolamine-N-[maleimide (polyethylene glycol) 2000] (DSPE-PEG-maleimide) and TPCA-1 was rehydrated with phosphate buffered saline (PBS) and sonicated. The rehydrated lipids were repeatedly extruded through a 200 nm porous membrane to generate 200 nm 1-3 walled nanosomes. The MabCII were thiolated using Traut's reagent, then mixed with the nanosomes for conjugation. After conjugation, the reaction mixture was chromatographed on a Sepharose CL-4B column to separate the free antibodies from the coupled liposomes. […]
At the completion of the two-week loading period, mice were injected retro-orbitally with 100 μL composite mixture of 50 μL of monoclonal antibody to type II collagen (MabCII680) labeled with XenoFluor 680 (XF680; Caliper) fluorescent dye and 50 μL of MMPSense-750 (Perkin-Elmer, Waltham, Mass.) a substrate that fluoresces when cleaved by MMPs. After 24 hours, the mice were anesthetized and the knee joints were optically scanned for each type of fluorescence using a Lumina XR (Perkin Elmer, Waltham, Mass.).

[4] = test system: exposed type II collagen in articular cartilage explants; assay: Binding of fluorescent avidin/biotinylated reparative cells to cartilage explants pre-incubated with biotinylated antibody (IVIS imaging); parameters: species or system domestic pigs; conditions: for binding of fluorescent avidin/biotinylated ADSC cells to cartilage explant: biotinylated antibody 1 hr
Procedure: Type II collagen monoclonal antibody (MabCII) at a concentration of 1 mg/mL was buffer exchanged with phosphate buffered saline (PBS). The linking reagent NHS-PEG4-Biotin (Thermo Scientific) was then brought up in distilled water to a recommended 20-fold molar excess of Biotin per mg/mL of MabCII. The biotinylated MabCII sample was then added to a Zeba spin desalting column (Thermo Scientific) column and centrifuged at 1000×g for 2 minutes in order to remove excess biotin reagent. The collected flow-through solution was the purified sample. As a control, irrelevant monoclonal mouse IgG antibody of the same subclass (Isotope Control from R&D Systems, Inc.) was similarly prepared.
The reparative cells (isolated chondrocytes or chondrogenically differentiated ADSCs) previously labeled with a fluorescent dye (Vivotrack 680: PerkinElmer, MA), were re-suspended at 1×10^6 cells/ml in fresh serum-free medium with 250 mM sucrose, 1 mM HEPES, and 1 mM CaCl2. The PE-PEG-Biotin stock solution (1 mM) was then added to the various tubes at 25 μM final concentration and incubated for 60 minutes to allow PE-PEG-Biotin integration into the cell membranes. Neutravidin was dissolved in PBS and added to the PE-PEG-Biotin labeled cells at a final concentration of […] of Neutravidin. The tubes were then allowed to incubate on a rocker platform for 30 minutes at 37° C. for binding. After incubation, the cells were centrifuged, supernatants were discarded, and serum-free medium was added and the cells vortexed ready to incubate with the cartilage explants.
Cartilage explants were harvested from the articular cartilage of femoral condyles of domestic pigs ranging from 25 to 30 kilograms and were punched from cartilage explants taken from the surface of articular cartilage with a 6 mm dermal punch to provide equivalent surface areas. The cartilage explants were divided into two groups for incubation with biotinylated Mab; one group that would be mechanically damaged and one group with no damage (normal). […]

[5] = test system: type II collagen (Col2a1) expression; assay: Type II collagen gene expression (PCR) of reparative cells bound to devitalized scratched cartilage explants; type: cell-based, pig; conditions: one week
Procedure: For evaluation of gene expression of the reparative cells attaching to cartilage explants with the two step MabCII, biotin-avidin system described above, cartilage explants were devitalized by freeze thawing and washed three times before incubation with biotinylated MabCII and avidin/biotinylated chondrocytes or avidin/biotinylated chondrogenically differentiated ADSC cells as described above. After washing to remove unbound cells, the cells bound to the explants were incubated for one week in complete F12K culture medium with 10% FCS. The explants were then washed and the RNA extracted with Trizol for quantitative polymerase chain reaction (PCR) for the cartilage specific-type II collagen expression. Quantitative gene expression was analyzed by PCR using primers specific for type II collagen (Col-II) and the housekeeping gene glyceraldehyde-3-phosphate dehydrogenase (GAPDH). Gene expression was calculated as 2^−ΔΔCT after normalization to GAPDH expression. For some experiments gene expression from avidin/biotinylated cells that were incubated in standard tissue culture wells or incubated with cartilage with no antibody for the same period of time were set as 1+/− standard error of the mean (SEM) and compared to same type of cells binding to the cartilage explants.

| Molecule | proinflammatory mediators in collagen-induced arthritis [1] | cartilage damage: binding of MabCII680, intensity in region of interest [2] | MMP activity: fluorescence of MMPSense-750 (MMPs) | cartilage damage: binding of MabCII680, intensity in region of interest [3] | binding of isolated articular chondrocytes to cartilage explant ([4]; avidin/biotinylated chondrocytes, data not shown) | binding of fluorescent avidin/biotinylated ADSC cells to cartilage explant ([4]; damaged (scratched) cartilage) | binding of fluorescent avidin/biotinylated ADSC cells to cartilage explant ([4]; normal (unscratched) articular cartilage) | expression of CII relative to cells maintained without cartilage in standard tissue culture ([5]; articular chondrocytes on explants) | type II collagen (Col2a1) gene expression of targeted cells ([5]; avidin/biotinylated ADSC, FIG. 9B) | type II collagen (Col2a1) gene expression of targeted cells ([5]; avidin/biotinylated chondrocytes, FIG. 9A) |
| --- | --- | --- | --- | --- | --- | --- | --- | --- | --- | --- |
| NC(=O)Nc1sc(-c2ccc(F)cc2)cc1C(N)=O [TPCA-1, 2-[(aminocarbonyl)amino]-5-(4-fluorophenyl)-3-thiophenecarboxamide] | reduce proinflammatory mediators such as TNF-α | did not show significant improvement | did not show significant reduction | no improvement | – | – | – | – | – | – |
| B1 | – | – | – | – | same specificity of binding | significant amount of reparative cells binding | not detectable | equivalent | continue to express type II collagen | continue to express type II collagen |
